Laboratory results taken from US20200071671A1.

Biological target: hCCNT1-C261Y (human) (UniProt O60563)
Test: cell-based or functional assay

Sequence of UniProt O60563 (O60563 whole entry C261Y): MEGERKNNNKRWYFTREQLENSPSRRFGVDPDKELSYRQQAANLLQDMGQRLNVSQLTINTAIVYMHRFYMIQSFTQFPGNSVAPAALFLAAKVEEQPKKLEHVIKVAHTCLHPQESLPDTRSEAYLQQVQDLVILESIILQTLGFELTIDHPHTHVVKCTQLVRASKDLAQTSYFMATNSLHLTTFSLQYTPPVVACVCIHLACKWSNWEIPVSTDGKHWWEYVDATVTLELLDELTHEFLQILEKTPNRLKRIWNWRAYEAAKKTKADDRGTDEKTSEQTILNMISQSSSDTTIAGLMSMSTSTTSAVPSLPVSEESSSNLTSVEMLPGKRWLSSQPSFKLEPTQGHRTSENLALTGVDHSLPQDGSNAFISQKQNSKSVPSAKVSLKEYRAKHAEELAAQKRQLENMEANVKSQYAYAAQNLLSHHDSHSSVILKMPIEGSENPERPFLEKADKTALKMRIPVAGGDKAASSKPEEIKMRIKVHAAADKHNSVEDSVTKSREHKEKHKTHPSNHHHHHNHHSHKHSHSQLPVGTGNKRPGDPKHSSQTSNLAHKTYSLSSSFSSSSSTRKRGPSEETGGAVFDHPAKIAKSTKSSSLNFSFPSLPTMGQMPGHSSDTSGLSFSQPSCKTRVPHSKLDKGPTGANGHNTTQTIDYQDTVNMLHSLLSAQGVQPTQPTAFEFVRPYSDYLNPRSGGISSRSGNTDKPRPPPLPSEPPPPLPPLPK

## HIV-1 Tat protein
  fold decrease in Tat-dependent GFP expression, dual-colour single-round HIV-1 reporter virus, hCCNT1-C261Y Jurkat cells against wild-type parental cells: > 16 fold
